{
  "source": "patent US20110166036A1",
  "target": "recombinant human sortilin (human) (UniProt Q99523)",
  "sequence (Q99523 78-755 limits assumed, form in doubt)": "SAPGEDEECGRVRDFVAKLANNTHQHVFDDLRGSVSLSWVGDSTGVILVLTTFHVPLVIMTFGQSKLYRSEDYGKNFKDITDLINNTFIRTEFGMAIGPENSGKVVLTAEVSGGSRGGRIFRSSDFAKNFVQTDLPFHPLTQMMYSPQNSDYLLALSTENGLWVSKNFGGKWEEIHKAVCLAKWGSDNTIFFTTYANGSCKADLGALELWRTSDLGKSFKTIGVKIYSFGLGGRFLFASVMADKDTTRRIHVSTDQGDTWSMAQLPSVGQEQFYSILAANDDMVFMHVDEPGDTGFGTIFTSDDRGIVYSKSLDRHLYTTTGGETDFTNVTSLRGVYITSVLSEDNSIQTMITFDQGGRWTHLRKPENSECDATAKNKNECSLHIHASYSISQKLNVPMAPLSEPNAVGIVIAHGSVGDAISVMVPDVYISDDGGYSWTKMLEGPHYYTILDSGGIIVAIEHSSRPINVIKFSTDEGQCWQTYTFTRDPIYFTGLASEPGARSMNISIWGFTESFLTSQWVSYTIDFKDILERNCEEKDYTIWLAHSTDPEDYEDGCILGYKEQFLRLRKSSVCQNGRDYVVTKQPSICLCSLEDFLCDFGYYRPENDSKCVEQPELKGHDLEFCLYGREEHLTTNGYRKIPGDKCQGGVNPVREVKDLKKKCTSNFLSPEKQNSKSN",
  "assay": "SPR (BIAcore), sortilin immobilized on CM5 chip, ApoB 10, 20, 50 nM",
  "data": [
    {"substance": "ApoB (ligand)", "values": [
      {"measurement": "Kd", "result": 0.4, "unit": "nM"}
    ]}
  ]
}
